Test results published in publication PMC11565396 (Journal of Lipid Research, 2024).

Target: the molecule itself
Test: SEC

B1: 6xHis-VP40 (recombinant full-length EBOV VP40, dimer) (natural protein)
chain: MRRVILPTAPPEYMEAIYPVRSNSTIARGGNSNTGFLTPESVNGDTPSNPLRPIADDTIDHASHTPGSVSSAFILEAMVNVISGPKVLMKQIPIWLPLGVADQKTYSFDSTTAAIMLASYTITHFGKATNPLVRVNRLGPGIPDHPLRLLRIGNQAFLQEFVLPPVQLPQYFTFDLTALKLITQPLPAATWTDDTPTGSNGALRPGISFHPKLRPILLPNKSGKKGNSADLTSPEKIQAIMTSLQDFKIVPIDPTKNIMGIEVPETLVHKLTGKKVTSKNGQPIIPVLLPKYIGLDPVAPGDLTMVITQDCDTCHSPASLPAVIEK
B1: binds.
